Seven molecules from paper PMC12431793, “Identification of antibodies induced by immunization with the syphilis vaccine candidate Tp0751” (Vaccine, 2025) can be followed below.

Conditions in all cases: both partners purified
Assay [1] deals with T1, Tp0751_(24–237) (Treponema pallidum subsp. pallidum, …, UniProt O83732).
T1 construct: The biotinylated, streptavidin-tetramerised form was used only to stain and sort B cells, not in BLI or ELISA; also called soluble Tp0751_(24–237); mature Tp0751 protein
T1 sequence (O83732 24-237): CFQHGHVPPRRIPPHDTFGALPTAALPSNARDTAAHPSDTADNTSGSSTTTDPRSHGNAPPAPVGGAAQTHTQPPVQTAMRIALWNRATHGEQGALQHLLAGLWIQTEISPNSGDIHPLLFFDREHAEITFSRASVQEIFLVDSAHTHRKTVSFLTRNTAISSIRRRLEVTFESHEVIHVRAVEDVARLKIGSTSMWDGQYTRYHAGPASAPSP
Nature of the assay: ELISA; titration: plates coated with 15 pmol/well Tp0751_(24–237) in 1xTBS pH 7.4; 0.2 pM-33 nM rabbit antibodies serially diluted in 4 % skim milk in TBS, 1 h at room temperature; anti-rabbit IgG-HRP.

Assay [2] deals with T2, Tp0751_(115–237) (Treponema pallidum subsp. pallidum, …, UniProt O83732).
T2 construct: Tp0751 of Treponema pallidum, amino acids 115-237 (N-terminal truncation; lipocalin structural fold); also called Tp0751 lipocalin structural/functional domain
T2 sequence (O83732 115-237): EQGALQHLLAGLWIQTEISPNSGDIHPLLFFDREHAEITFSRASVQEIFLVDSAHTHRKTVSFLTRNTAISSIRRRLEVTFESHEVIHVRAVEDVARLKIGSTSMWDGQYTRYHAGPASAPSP
Nature of the assay: ELISA; epitope mapping: 33pM of antibody on plate-coated Tp0751_(24–237), Tp0751_(99–237) or Tp0751_(115–237). (In general: In an ELISA, binding on a coated surface is turned into a signal by an enzyme label.)

Assay [3] concerns the target T3, Tp0751_(99–237) (Treponema pallidum subsp. pallidum, …, UniProt O83732).
T3 construct: Tp0751 of Treponema pallidum, amino acids 99-237 (N-terminal truncation; alpha helix cap 99-114 and lipocalin domain 115-237)
Described as above.

In assay [4] the target is T1, Tp0751_(24–237). The description is as above.
For assay [5], the target named is T1, Tp0751_(24–237). Nature of the assay: BLI; OctetRed, room temperature, shaking at 500 RPM; 40 μg/mL antibody loaded on Protein A capture biosensors; 0.1, 0.7 or 6 μM Tp0751_(24–237) in solution, 5 min association, 5 min dissociation in kinetics buffer. A general note: Biolayer interferometry detects binding as a change in optical thickness at a sensor tip.

T3 sequence (O83732 99-237): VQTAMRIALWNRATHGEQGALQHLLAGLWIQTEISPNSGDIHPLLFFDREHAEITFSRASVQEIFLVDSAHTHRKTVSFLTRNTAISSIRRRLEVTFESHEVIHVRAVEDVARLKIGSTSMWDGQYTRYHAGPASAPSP

B1: 2101D12 (antibody, V domains shown)
VH: QQLEESGGGLVKPGGTLTLTCKASGWDFSSSYWISWVRQAPGKGLEWIAYINTDSLKTYYATWAKGRFTVSKTSSTTVTLQVTSLTAADTATYFCADGAFWGPGTLVTVSS
VL: DVVMTQTPASVSAAVGGTVTINCQASQSINSWLSWYQQKPGQPPKRLINDASTLESGVPSRFKGSGCGTQFTLTISDLECADAATYYCQSHYFSRSIDYYNAFGGGTEVVVK
notes: made as rabbit IgG; source: produced and purified as rabbit IgG by Sino Biological
With B1, the binding result in assay [1], in assay [2] and in assay [3] was “binds” throughout.

B2: 2101A3 (antibody, V domains shown)
VH: QSLEESGGGLVKPGGTLTLTCKASGFDLSSYYYMCWVRQAPGKGLEWIACTYISSGSTWYASWAKGRFTVSKPSSTTVTLQMTSLTAADTATYFCAREVGSPEYGYYLDLWGPGTLVTVSS
VL: DVVMTQTPASVEAAVGGTVTIKCQASQSISSWLSWYQQKPGQPPKLLIYQASKLASGVPSRFKGSGCGTEYTLTISDLECADGATYYCQTYYGSGSSNYHAFGGGTEVVVK
notes: as for B1
As to B2, the figures for the binding result in assay [1], in assay [2] and in assay [3] were “binds”, “no binding (tested: 33pM of antibody)” and “binds”, respectively.

B3: 2101B3 (antibody, V domains shown)
VH: QSLEESGGDLVKPGASLTLTCTASGLDFSGYYYICWVRQAPGKGLEWIGCIWPGDGDTDYASWAKGRFTVSKTSSTTVDLKVTTLTAADTATYFCGRLLGSGSAYFNLWGPGTLVTVSS
VL: AVVMTQTPSSVSEAVGGTVTIKCQASQTIGEALAWYQQKPGQPPKLLIYKASTVASGVPWRFKGSGCGSEYTLTISGVQCEDAATYYCQQGYSLTIIDNLFGGGTEVVVE
notes: as for B1
With B3, the binding result in assay [2], in assay [3] and in assay [4] was “binds” throughout.

B4: 2091E9 (antibody, V domains shown)
VH: QSVEESGGRLVTPGGSLTLTCTVSGFSLSSYVMTWVRQAPGKGLEWIGYIYIDGYTTWYASWVKGRFTISRTSTTVDLKMTSLSTEDTATYFCVRVGATIDFMMRRLDLWGQGTLVTVSS
VL: DVVMTQTPSSVSAAVRGTVTIKCQASPSVYSDYLSWYQQKPGQRPKLLMYGTSTLASGVPSRFKGSGSGTQFTLTISDVQCDDAATYYCAGGFNSGADSFAFGGGTEVVVQ
notes: as for B1
For B4, the binding result in assay [5] and in assay [2] was “binds” each time.

B5: 2131F4 (antibody, V domains shown)
VH: QSVEESGGDLVKPEGSLTLTCTASEFSFNTNHYVCWVRQAPGKGLEWLACVAGGGSGATYYATWAKGRFTLSRTSSSTVTLEMTSLAPADTATYFCARVDSTDFNFDLWGPGTLVTVSS
VL: DPVMTQTPSPVSAAVGGTVSISCQSSQIVYNDNWLSWYQQKPGQPPKRLIYGTSNSASGVPSRFKGSGCGTQFTLTISDVQCDDAATYYCQGGYLVGDVYVFGGGTEVVVK
notes: as for B1
With B5, the binding result in assay [2] is on record as “no binding (tested: 33pM of antibody)”; in assay [3], “no binding (tested: 33pM of antibody)”; in assay [4] it was “binds”.

B6: 2092D3 (antibody, V domains shown)
VH: QSVEESGGRLVTPGTPLTLTCTVSGFSLSSYTMSWVRQAPGKGLEWIGVISGSDTLSYATWAKGRFTISKTSTTVDLKITSPTTADTATYFCARDGGYSDYDHAPNIWGPGTLVTVSL
VL: DVVMTQTPASVEAAVGGTVTIKCQASQSIYNYLAWYQQKPGQPPKLLIYQASKVASGVPSRFKGRGSGTQFTLTISDLECADAATYYCQWSFYDSNYIGAFGGGTEVVVK
notes: as for B1
Take B6: the binding result in assay [1] is on record as “binds”; in assay [2] it was “no binding (tested: 33pM of antibody)”; in assay [3], “binds”.

B7: 2092E3 (antibody, V domains shown)
VH: QSVEESGGRLVTPGTPLTLTCTVSGIDLSSYAMSWVRQAPGKGLEWIGVIGDMDIVSYATWAKGRFTISKTSTTVDLKITSPTTADTATYFCAGDGGYSDYDHAPNIWGPGTLVTVSL
VL: DVVMTQTPASVEAAVGGTVTIKCHASESIYDYLAWYQQKPGQPPKLLISKASTLASGVPSGFKASGSGTLFTLTISDLECADAATYYCQWSFYDHYYVGAFGGGTEVVVK
notes: as for B1
B7: the binding result is recorded as “no binding (tested: 33pM of antibody)” in assay [2], “binds” in assay [3] and “binds” in assay [4].
